Data taken from the supplement of paper PMC9112550, “Optimization of the antimicrobial peptide Bac7 by deep mutational scanning” (BMC Biology, 2022).

System: Escherichia coli TOP10
Assay: shrunken log2 fold change of peptide-encoding DNA abundance (4.5 h post-induction vs induction); higher = less antimicrobial activity (less host growth inhibition)
Details: time post-induction: 4.5 h; library: site-saturation at positions 5, 18, 19, 20
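Further: peptides expressed intracellularly from a pBAD plasmid library in pooled LB shake-flask culture, induced with 0.3% L-arabinose, DNA abundance read by NGS, three biological replicates, DESeq2 with apeglm shrinkage.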

Row | Sequence | shrunken log2 fold change
1 | RRIRVRPPRLPRPRPRPRLMPRP | -0.0256
2 | RRIRVRPPRLPRPRPRPRMHPRP | 0.151
3 | RRIRVRPPRLPRPRPRPRNYPRP | -0.567
4 | RRIRVRPPRLPRPRPRPRPMPRP | 0.445
5 | RRIRVRPPRLPRPRPRPRQIPRP | 0.0436
6 | RRIRVRPPRLPRPRPRPRREPRP | 0.495
7 | RRIRVRPPRLPRPRPRPRRQPRP | 0.0745
8 | RRIRVRPPRLPRPRPRPRSAPRP | 0.258
9 | RRIRVRPPRLPRPRPRPRTCPRP | -0.143
10 | RRIRVRPPRLPRPRPRPRTRPRP | 0.339
11 | RRIRVRPPRLPRPRPRPRWIPRP | -0.0863
12 | RRIRVRPPRLPRPRPRPRWWPRP | 0.0125
13 | RRIRVRPPRLPRPRPRPRYWPRP | 0.338
14 | RRIRVRPPRLPRPRPRPSACPRP | -0.768
15 | RRIRVRPPRLPRPRPRPSAKPRP | -0.354
16 | RRIRVRPPRLPRPRPRPSAWPRP | 0.804
17 | RRIRVRPPRLPRPRPRPSCDPRP | -0.231
18 | RRIRVRPPRLPRPRPRPSCIPRP | -0.423
19 | RRIRVRPPRLPRPRPRPSEKPRP | 0.268
20 | RRIRVRPPRLPRPRPRPSELPRP | -0.157
21 | RRIRVRPPRLPRPRPRPSFKPRP | -0.202
22 | RRIRVRPPRLPRPRPRPSFTPRP | -0.301
23 | RRIRVRPPRLPRPRPRPSGAPRP | 0.197
24 | RRIRVRPPRLPRPRPRPSGDPRP | -0.251
25 | RRIRVRPPRLPRPRPRPSGTPRP | -0.298

Row | Sequence | shrunken log2 fold change
26 | RRIRVRPPRLPRPRPRPSHMPRP | -0.585
27 | RRIRVRPPRLPRPRPRPSIFPRP | -0.606
28 | RRIRVRPPRLPRPRPRPSLRPRP | 0.133
29 | RRIRVRPPRLPRPRPRPSNDPRP | -0.244
30 | RRIRVRPPRLPRPRPRPSNEPRP | -0.775
31 | RRIRVRPPRLPRPRPRPSNHPRP | -0.636
32 | RRIRVRPPRLPRPRPRPSPPPRP | -0.0761
33 | RRIRVRPPRLPRPRPRPSQDPRP | -0.221
34 | RRIRVRPPRLPRPRPRPSQFPRP | -0.952
35 | RRIRVRPPRLPRPRPRPSRDPRP | -0.0563
36 | RRIRVRPPRLPRPRPRPSRWPRP | 0.278
37 | RRIRVRPPRLPRPRPRPSSIPRP | -0.128
38 | RRIRVRPPRLPRPRPRPSSKPRP | -0.0737
39 | RRIRVRPPRLPRPRPRPSVPPRP | -0.165
40 | RRIRVRPPRLPRPRPRPSWEPRP | -0.0979
41 | RRIRVRPPRLPRPRPRPSWGPRP | 0.0232
42 | RRIRVRPPRLPRPRPRPSWIPRP | -0.476
43 | RRIRVRPPRLPRPRPRPTACPRP | -0.124
44 | RRIRVRPPRLPRPRPRPTCDPRP | -0.156
45 | RRIRVRPPRLPRPRPRPTFIPRP | -0.166
46 | RRIRVRPPRLPRPRPRPTGGPRP | 0.18
47 | RRIRVRPPRLPRPRPRPTGPPRP | 0.164
48 | RRIRVRPPRLPRPRPRPTHEPRP | 0.256
49 | RRIRVRPPRLPRPRPRPTHGPRP | -0.235
50 | RRIRVRPPRLPRPRPRPTHVPRP | 0.0149

Row | Sequence | shrunken log2 fold change
51 | RRIRVRPPRLPRPRPRPTKGPRP | 0.118
52 | RRIRVRPPRLPRPRPRPTKIPRP | -0.321
53 | RRIRVRPPRLPRPRPRPTLFPRP | -0.0123
54 | RRIRVRPPRLPRPRPRPTMYPRP | -0.245
55 | RRIRVRPPRLPRPRPRPTNVPRP | -0.374
56 | RRIRVRPPRLPRPRPRPTSGPRP | 0.0674
57 | RRIRVRPPRLPRPRPRPTSLPRP | -0.262
58 | RRIRVRPPRLPRPRPRPTSSPRP | -0.0575
59 | RRIRVRPPRLPRPRPRPTTIPRP | -0.0865
60 | RRIRVRPPRLPRPRPRPTTMPRP | 0.00526
61 | RRIRVRPPRLPRPRPRPTTVPRP | -0.241
62 | RRIRVRPPRLPRPRPRPTVFPRP | -0.0187
63 | RRIRVRPPRLPRPRPRPTVIPRP | -0.127
64 | RRIRVRPPRLPRPRPRPTWWPRP | 0.0544
65 | RRIRVRPPRLPRPRPRPTYMPRP | -0.445
66 | RRIRVRPPRLPRPRPRPVAEPRP | 0.104
67 | RRIRVRPPRLPRPRPRPVASPRP | 0.187
68 | RRIRVRPPRLPRPRPRPVCQPRP | 0.0508
69 | RRIRVRPPRLPRPRPRPVDPPRP | 0.22
70 | RRIRVRPPRLPRPRPRPVDWPRP | 0.403
71 | RRIRVRPPRLPRPRPRPVFSPRP | -0.176
72 | RRIRVRPPRLPRPRPRPVIVPRP | -0.349
73 | RRIRVRPPRLPRPRPRPVKAPRP | 0.0603
74 | RRIRVRPPRLPRPRPRPVKEPRP | 0.629
75 | RRIRVRPPRLPRPRPRPVLLPRP | -0.35

Row | Sequence | shrunken log2 fold change
76 | RRIRVRPPRLPRPRPRPVLRPRP | 0.187
77 | RRIRVRPPRLPRPRPRPVMIPRP | -0.183
78 | RRIRVRPPRLPRPRPRPVNHPRP | -0.306
79 | RRIRVRPPRLPRPRPRPVNIPRP | -0.584
80 | RRIRVRPPRLPRPRPRPVQNPRP | -0.029
81 | RRIRVRPPRLPRPRPRPVQQPRP | -0.246
82 | RRIRVRPPRLPRPRPRPVRHPRP | 0.0933
83 | RRIRVRPPRLPRPRPRPVSYPRP | -0.51
84 | RRIRVRPPRLPRPRPRPVWMPRP | 0.52
85 | RRIRVRPPRLPRPRPRPVWTPRP | 0.155
86 | RRIRVRPPRLPRPRPRPVYFPRP | -0.334
87 | RRIRVRPPRLPRPRPRPVYRPRP | 0.132
88 | RRIRVRPPRLPRPRPRPWAKPRP | -0.00459
89 | RRIRVRPPRLPRPRPRPWCNPRP | 3.15
90 | RRIRVRPPRLPRPRPRPWCPPRP | 0.0662
91 | RRIRVRPPRLPRPRPRPWCYPRP | -0.366
92 | RRIRVRPPRLPRPRPRPWDIPRP | -0.235
93 | RRIRVRPPRLPRPRPRPWFAPRP | -0.191
94 | RRIRVRPPRLPRPRPRPWFLPRP | -0.386
95 | RRIRVRPPRLPRPRPRPWFPPRP | -0.641
96 | RRIRVRPPRLPRPRPRPWGIPRP | -0.265
97 | RRIRVRPPRLPRPRPRPWGVPRP | -0.15
98 | RRIRVRPPRLPRPRPRPWGWPRP | 0.331
99 | RRIRVRPPRLPRPRPRPWHLPRP | -0.191
100 | RRIRVRPPRLPRPRPRPWINPRP | -0.565

Row | Sequence | shrunken log2 fold change
101 | RRIRVRPPRLPRPRPRPWKRPRP | -0.1
102 | RRIRVRPPRLPRPRPRPWLCPRP | -0.144
103 | RRIRVRPPRLPRPRPRPWMLPRP | -0.2
104 | RRIRVRPPRLPRPRPRPWMSPRP | -0.076
105 | RRIRVRPPRLPRPRPRPWNFPRP | -0.102
106 | RRIRVRPPRLPRPRPRPWNGPRP | -0.277
107 | RRIRVRPPRLPRPRPRPWNVPRP | -0.0441
108 | RRIRVRPPRLPRPRPRPWNYPRP | -0.0949
109 | RRIRVRPPRLPRPRPRPWQSPRP | 0.0169
110 | RRIRVRPPRLPRPRPRPWQVPRP | -0.161
111 | RRIRVRPPRLPRPRPRPWSIPRP | -0.0192
112 | RRIRVRPPRLPRPRPRPWSMPRP | -0.014
113 | RRIRVRPPRLPRPRPRPWTIPRP | -0.281
114 | RRIRVRPPRLPRPRPRPWVDPRP | 0.0379
115 | RRIRVRPPRLPRPRPRPWYFPRP | -0.619
116 | RRIRVRPPRLPRPRPRPWYYPRP | 0.0171
117 | RRIRVRPPRLPRPRPRPYAAPRP | -0.3
118 | RRIRVRPPRLPRPRPRPYAIPRP | -0.033
119 | RRIRVRPPRLPRPRPRPYARPRP | -0.243
120 | RRIRVRPPRLPRPRPRPYCMPRP | -0.898
121 | RRIRVRPPRLPRPRPRPYEIPRP | -0.14
122 | RRIRVRPPRLPRPRPRPYFQPRP | -0.649
123 | RRIRVRPPRLPRPRPRPYGGPRP | -0.374
124 | RRIRVRPPRLPRPRPRPYGHPRP | -0.0167
125 | RRIRVRPPRLPRPRPRPYGLPRP | -0.00518

Row | Sequence | shrunken log2 fold change
126 | RRIRVRPPRLPRPRPRPYGYPRP | -1.16
127 | RRIRVRPPRLPRPRPRPYIWPRP | -0.504
128 | RRIRVRPPRLPRPRPRPYKAPRP | -0.0443
129 | RRIRVRPPRLPRPRPRPYKEPRP | 0.0231
130 | RRIRVRPPRLPRPRPRPYKHPRP | -0.81
131 | RRIRVRPPRLPRPRPRPYKQPRP | -0.00648
132 | RRIRVRPPRLPRPRPRPYLAPRP | -0.413
133 | RRIRVRPPRLPRPRPRPYNMPRP | -0.979
134 | RRIRVRPPRLPRPRPRPYNPPRP | -0.492
135 | RRIRVRPPRLPRPRPRPYNQPRP | -0.844
136 | RRIRVRPPRLPRPRPRPYNSPRP | -0.0974
137 | RRIRVRPPRLPRPRPRPYPDPRP | -0.293
138 | RRIRVRPPRLPRPRPRPYQWPRP | -0.175
139 | RRIRVRPPRLPRPRPRPYRAPRP | -0.201
140 | RRIRVRPPRLPRPRPRPYRTPRP | -0.19
141 | RRIRVRPPRLPRPRPRPYVEPRP | -0.132
142 | RRIRVRPPRLPRPRPRPYWFPRP | -0.396
143 | RRIRVRPPRLPRPRPRPYWYPRP | -0.964
144 | RRIRVRPPRLPRPRPRPYYGPRP | -0.203
145 | RRIRVRPPRLPRPRPRPYYIPRP | -0.284
146 | RRIRVRPPRLPRPRPRPYYMPRP | -0.997
147 | RRIRVRPPRLPRPRPRPYYTPRP | -1.39
148 | RRIRVRPPRLPRPRPRPYYWPRP | -0.0974
149 | RRIRWRPPRLPRPRPRPACIPRP | 0.0736
150 | RRIRWRPPRLPRPRPRPAECPRP | -0.0444
